Experimental data taken from PMC2118495.
Read-outs that look alike come from different tables or passages of the source.

B1: mouse CD3γ (natural protein)
chain: QTNKAKNLVQVDGSRGDGSVLLTCGLTDKTIKWLKDGSIISPLNATKNTWNLGNNAKDPRGTYQCQGAKETSNPLQVYYRMCENCIELNIGTISGFIFAEVISIFFLALGVYLIAGQDGVRQSRASDKQTLLQNEQLYQPLKDREYDQYSHLQGNQLRKK

Assays:
Experiment in all cases: native gel or EMSA
[1] = molecular target: human TCRγδ (clonotypic heterodimer of the γδ TCR) (human (endogenous in PBMCs and γδ T cell clones))
[2] = molecular target: mouse TCRγδ (transgenic TCRVγ1.1 and TCRVδ6 chains) (mouse)
[3] = molecular target: mouse TCRγδ (transgenic TCRVγ1.1 and TCRVδ6 chains) (mouse); remark: listed apart in the source

| stoichiometry N [1] | other results | Molecule |
| --- | --- | --- |
| 1 | – | human CD3δ (from UniProt P04234 22-171) (natural protein) |
| – | stoichiometry N [2]: 2 | mouse CD3ε (from UniProt P22646 22-189) (natural protein) |
| 2 | – | human ζ chain of the TCR (ζζ dimer) (from UniProt P20963 22-164) (natural protein) |
| 1 | – | human CD3γ (from UniProt P09693 23-182) (natural protein) |
| 2 | – | human CD3ε (from UniProt P07766 23-207) (natural protein) |
| – | stoichiometry N [3]: 2 | B1 |
